This data set can be described thus: soluble on expression in E. coli; label from the status in PepcDB or PDB records.
Consider “MIGVVGGGIAGLSAAYRLQQRGHEVRVFEASEDLGGLAATYETAGDPIEKFYHHLSKSEETIVDLAEELGLGDAVEWHIGENAYYVDGVVHPMDKPWEILSYPHLSLYDTFRLGMLVLDIDVRGGVPSFDTYERLEDFEGVPIEEFVVDHTTRGVYENFFEPLLDAKFGDRKDDVSAAWLLGRVKFRGERDILNGEILGYFDGGFGRLLDALVDAVGRDNIATGTRVSDIDTSGGTVSSLTATDGTETTVHDVDSVVVATMPNVLEALTGYTCDIDFQGTVCSVISMDEPLLDTYWLNIADDAPFGALIEHTNFVSAERYGGEHLLYVARYIQDESEAIWQQSDDEVAETWLQGIESLFPDFDRDAVNWIRTGRNPRTAPVYERGYLDMVIPYDLSDAVADGLYYAGMASRAQYPERSLNGGIVAGFECADRIARDPSAATKTDESPLSEAQRLEHHHHHH”, for which the “soluble on expression in E. coli” value was “not soluble”.

As for “MKERIVGQSGELFCFGQMPVWKVENLPEVLLSGYSSEEGEWVCLNVLQGDVEVRAPDGSAEVWSADGGDCVFAPQQVFSVKPKTDDAEIRLSLYCAAADYFHKKYGMSATHSAVAAARDTVPAGRALDMGCGQGRNALFLGLKGFEVTAVDHNPAALANVAELAEAEGLNVRTLEYDLNAAALQGEFDYIVATVVLMFLMPQRVPDVIADMQAHTAAGGYNLIVSAMDTADFPCPMPFPFKFKEGELKDYYRDWELVEYKEELGSMHAKDENGNPIRFKFVTMLAKKPELEHHHHHH”, the “soluble on expression in E. coli” value is listed as “not soluble”.

For “MLILMDPEETGKAPEIRALKSRAVNRVDSDLGRMEAVKRLKGVEDRRVGSEVFDELTLKTLYKLANSGYLAVLNGAVSTGKEANVFKGITDTDDFVAVKIYRVATSDFKKMQYYIQGDPRFKVRTTNRRQLVQAWVNKEFRNLKRALEAGVRVPEPVTARDNVLIMEFIGKDGVPAPTMRDAPPEDPEEALETIIEYMHRLYKGARLVHGDLSFFNILNHCGEPVIIDVSQAMVLDHPLAGELLERDIENIIRDFRRIGVSVSADYIRERITGK”, the “soluble on expression in E. coli” value is “soluble”.

Consider “MAAVDVNQPITGHKSAIIRNYNTNPRLIYQTVCGVNGPLVILNDVKFPQFSEIVKITLPDGSKRSGQVLEISKNKAVVQVFEGTSGIDAKNTICEFTGDILRTPVSEDMLGRIFNGSGKPIDKGPPVLAEDFLDINGQPINPWSRIYPEEMIQTGISAIDVMNSIARGQKIPIFSASGLPHNEIAAQIVRQGGLVQLPDRPHEQTNFAIVFAAMGVNMETARFFKQDFEENGSMENVCLFLNLANDPTIERIITPRIALTSAEFLAYQCKKHVLVVLTDMSSYAEALREVSAAREEVPGRRGFPGYMYTDLATIYERAGRVEGRDGSITQIPILTMPNDDITHPIPDLTGYITEGQIYVDRQLHNRLIYPPINVLPSLSRLMKSAIGEGMTREDHSDVSNQLYACYAIGKDVQAMKAVVGEEALSSDDLLYLEFLTKFEKNFITQGHYENRSVFESLDIGWQLLRIFPREMLKRIPESTLEKYYPRGGAKE”, for which the “soluble on expression in E. coli” value was “not soluble”.

“MSLGEHILLNQTLSDVIHYFKSQRCGGVFDQQDRQVPVLNANQTVDVHGGWYDASGDVSKYLSHLSYANYLNPQQTPMVVWNILKGLSLLEGSEDIAAFTRTRLIEEALFGADFLVRMQNEKGFFYMTVFDKWSKDTAQREICAYETQLGHKFDDYQAGFRQGGGVAIAALAAASRLGVHGEYDQQKYRNAAENGYWHLKEHNTQYLNDGEENIIDEYCALLASVELFKATKETRYLEESRLWAQRLVARQMSDEQIQHFWSANQDGSRPYFHAAEAGLPGIALCEYLAIEDDSVQTESVKCIVNRACEFEIKISNKVTNPFGYPRQYVKGVNESKRDAFFVAHNNESGYWWQGENARLGSLATMAYLAQPHIASQEIQQQLSVFAQDALNWIVGLNPYDMCMLDGHGRNNPDYLPQYGFFNAKGGVCNGITGGFEDEEDIAFNPPAQKDDMLQNWRWGEQWIPHGAWYLLAIMSQAQHISQLATSKNIKEGHHHHHH”: the “soluble on expression in E. coli” value is “not soluble”.

As to “MSLTRFSVSPGDPMKKFVTLALTLSTLGASVASAQAVRVGMAYDAGGKADKSFNQSAYEGSQLAAKKLGIQVKDFEPSDPSQIIQGVRSFAKEGFDLTIGVGFSNNASITQVAKENPDLYFGLVDDVSTAKNVASLVFNEEQGSYLVGYLAAMNSSTGVVGFIGGMNIPLIHKFEAGYRAGVKAANPKATIISQYVGNTPEAWNNPGKAKEIAANMRGRGADIIFAAAGGSGNGLIDYIKQTPCLNASQLPKGVTFKSDNFKNVKKSAAYAKACTGNTRPMFFIGVDSNQNYLGDFDKNPATLNHGLTSMVKRVDNAVYALINEVKNDKFKAGERRFGLKDGGVAYAVDQYNKALLPAAQIAKVEAVKQQIIKGQIKVPTKEGGSHHHHHH”, the “soluble on expression in E. coli” value was “soluble”.

Turning to “MKAEIISVGTEILLGDIVNTNSQFLAKELASLGIEVYHQSTVGDNKQRLLECFDESLKRSDFVITTGGLGPTGDDMTKETAAEYFGQKLELHKPSLEVLESFFVKTGKKMAENNMKQVYFPKDAIVLKNNNGTAPGAILKKDGKFIIVLPGPPREMKAMFNESVKPYLQQFTNEMLVSKTLRLYGIGESNLELEILDIINEQTNPTVALYAKELEVTIRITAKAENEREAFKLIKPVEEKIKSRVGKYVYTEGDISISEGETALEDAVSKLLVEKNLTIAVAESCTGGLVSSSLINYPGISSVFLEGCVTYSNDSKMKRLGVKRETLEEFGAVSEQTAIEMAEGVAKGLKANIGISTTGVAGPGGGTKEKPVGLVYTAIYINGKTIVKKNIFNGDRRKIRLRATRDLLNELRIQLEKL”, the “soluble on expression in E. coli” value is “not soluble”.

As to “MIINITILEDNESDFITLSDSIKKWAANTGILINIIWLNSYKKFIKSLPTLKCDLFFSDIELNCNNSFTGIDACKQLRESGYTGIIIFLTAFKEYVFDGYDVQAFNYLLKPINYGTINNCLDKFIHLFSREFYYLEHHHHHH”, the “soluble on expression in E. coli” value is given as “soluble”.

As to “MDPRGTKRGAEKTEVAEPRNKLPRPAPSLPTDPALYSGPFPFYRRPSELGCFSLDAQRQYHGDARALRYYSPPPTNGPGPNFDLRDGYPDRYQPRDEEVQERLDHLLCWLLEHRGRLEGGPGWLAEAIVTWRGHLTKLLTTPYERQEGWQLAASRFQGTLYLSEVETPNARAQRLARPPLLRELMYMGYKFEQYMCAGELPLLHSPLPLPRG”, the “soluble on expression in E. coli” value is on record as “not soluble”.

As to “MGHHHHHHSHMVDIDLPEPPKPTPPDQETEEEQRFRALFEQVAGEDMEVTAEELEYVLNAVLQKKKDIKFKKLSLISCKNIISLMDTSGNGKLEFDEFKVFWDKLKQWINLFLRFDADKSGTMSTYELRTALKAAGFQLSSHLLQLIVLRYADEELQLDFDDFLNCLVRLENASRVFQALSTKNKEFIHLNINEFIHLTMNI”, the “soluble on expression in E. coli” value is listed as “soluble”.

Consider “MEQKHNGIIFTAIPNESNEYYQPFYEDLIYFNECLNEKKSIADQLISLSVEEQDFHTSCFEYDDIWLRDVAPVVTNHLVKFKYRPNYLPDDQGRYLDQQFNKWLKKNDFEYVKSPLILDGGNLIWNKKDTVILTERIFDDNDDWTEEEIIEQLEWDLDVSRVIIIPAEEGDVLAHADGMVKFIDEHTMFISDFLGDHEFRYSVEEIIQEQMPEAEFIVVPSSYTEKGQYDQEIASAKGLYINMLESCDALYVPKFGLAKDEEVLRYIQQYTEKQVIQIHVGEISTMGGAMNCLTWYCPSHLLPSKMRRLKNQNEDFSMKKIFDWFLEHHHHHH”, for which the “soluble on expression in E. coli” value is “soluble”.

Turning to “MAHHHHHHMVENEVYNRDMRIVRSRERLDGRPTLRSFFNKDGLLLKTYGWIVRNAVGLIVLIHGLNSHTRFSFLRHNVHVFNNRAILMDADNYYIYKNSWIEHFNKNGYSVFGIDLQSHGESEGWENLSLNVKEFDDLVYDVLEYIQKVQDDNARYMNYSSSSYSSSSSRSNSSSNSSSNSGSNSNSNSNSNSRGGESPRNDNSANRMIAPLPVYLIGQSMGGNVALRALQIVGKYRGLNRRLNIRGCVSLSGMIAVEALGLPSSYIYKSFFMPLSRFLSDFLPTLRLLCEMPYKRFQYIRDIGRFDTMRYRRGITCRFAYELLKAMDNLDHDMRFMPRDIPVLFIHSSKDKLCYPGGVVSFYNRLNIRNKELHMLNYMEHMLTMEPGNERVLSKIMNWLYNMSRPQRITA”, the “soluble on expression in E. coli” value is “not soluble”.

Take “MPKKFASENPKVTAARDRKATAKKDEADKKAKATEDAKWVDNDKLNNRKMQRKEDDEKKREEALRRKEENRKLAEEEMSSLGNKKPAGAATQKVTRAHIHIRKEDEERINRELEEKRKQEAQKIEVAGDLLVENLNKLEVEEGEARNVDDALKVLGEEKALDDDKHPEKRMRAAYLAFEEARLPELKLNHPTFRLSQLKQILKKEWQKSPENPLNARLLALNS”: the “soluble on expression in E. coli” value was “soluble”.

Take “MGSDKIHHHHHHMKSRLKKSHRLIRLISNIKSEPYLTVEQLVKIHRISRAQFYKDKAALAELGFEFSWDRRRRRFVISRVAYCPVENLTLSERWALLMAARQLSASGDYSLSFEVLNAARKLAAGLSDPIRETAVSLFNDLVLREGYGCRKEVMNKISMAIFEKRRIILTYKKPLDSQPEREELDPYHLFFQDRSLYVEGYACLRRDVRMFRLNRIRDIAFTPIRFSIPDDYDFGKRYRNAFSVFGGTTTQRVVVRFTAHIRPYIEETLWHHSQVVTIENGGFIRFEVQVAEPREVLWWAFRWGAGAEILEPAWLREKAKCEVEKMAGMYGRGSGSG”: the “soluble on expression in E. coli” value was “not soluble”.

In the case of “MHAVHQLHQYRKSLSTTTYKSRGQRVIRCQLCQLAKPFCICEISPLKENVETTAGFLLLMYDTEVLKPSNTGKLIADLIPDTFAFLWSRTQENPDLLAVINDEKWFPLVVFPQEYADDERKVFTNNVICPEGKRPLFIMLDGSWREAKKMFRKSPYLDRFPMVSFDVKTAIQAVSGNCQSENNSQLSPVGQDSRYTVRKTELEHQFSTAEVAARVLDMHGETTNAHMLDLWFDVFNFQYQKGVCQRNKGNVNAIENYQSFLAKTYRLEHHHHHH”, the “soluble on expression in E. coli” value is “not soluble”.

“SSEVLDGFDKVDKSLASSIDGSDKRNNLVLSELNTAYRTNPEKVKVWYERSLVLQKEADSLCTFIDDLKLAIARESDGKDAKVNDIRRKDNLDASSVIMLNPINGKGSTLRKEVDKFRELVATLMTDKAKLKLIEQALNTESGTKGKSWESSLFENMPTVAAITLLTKLQSDVRYAQGEVLADLVKSVDVGDYRVNSITAQVIPQSQIVMSGDTYKANIVLSSVDTTQRPDVFVNGKLLSPENMGLFTATAGAPGTYPVKGYIEMMGNDGVKIRRDFESEYFVTE”: the “soluble on expression in E. coli” value is “not soluble”.

With “GKRLSFEDGLVLYQTKDLPTLMRLANLVRERKHGHKTYFVHSIRVSQTNICYVGCTFCAFQRRFGEEGAWDWDVDEVVAWVKERYQPGLTEIHLTAGHHPKRPFAYYLDLVRALKENFPGVQVKAWTAAEIHHFSKIARLPYREVLKALKEAGLDAMPGGGAEIFAERVRRKIARAKVSAEGWLEIHRTAHELGIPTNATMLYGHIETLEERLDHMDRLRRLQDETGGFMSFIPLAFQPDGNQLARELGKKEFTTGLDDLRNLAVARLYLDNFPHIKGYWATLTPELAQVSLDWGVTDVDGTLIEERIVHMAGSPTPQGLTKRELARIILMAGRIPVER”, the “soluble on expression in E. coli” value was “not soluble”.

With “MGSDKIHHHHHHMPLVLIRKSDYSYETLKPLIFGMLDRLGGHRMAPGSRVLIKPNLLTPATPRQAILTHPFIVRAAVEYALNQNARPLVADSPAMGSFSKILRDSGIQEALAPLKVDYRPFQDSLKIDIGEPFGSIDIAREVIEADFIINLPKFKTHSQMLLTLGVKNLFGCIVGYRKPEWHMKTGVNRPLFARLLVQLYHRISPAFTILDGILALEGEGPGKRGTPKGGWPAPRQRQRPGPRQDRLPDT”, the “soluble on expression in E. coli” value is listed as “not soluble”.

In the case of “MSHAIQIREAHFPGRAPIDAYGNGGFRFADMSHRGSIICIPSGIYGIDMTGPVPTQEDISRVLEESDQIEVLLIGTGVELLRLPEELRVLLWEKRISSDTMSTGAAVRTFNVLLAEDRAVAALLFAVE”, the “soluble on expression in E. coli” value is on record as “soluble”.

Source of the values: the DeepSol protein solubility set.
